The values below come from doi:10.1101/2023.03.06.531343.

This assay concerns the target VirE2-Venus (expressed in transgenic Arabidopsis roots) (Agrobacterium tumefaciens) (UniProt P0A3W8). The assay can be described thus: co-IP.
UniProt P0A3W8, sequence (P0A3W8 whole entry, the tested form may be a part): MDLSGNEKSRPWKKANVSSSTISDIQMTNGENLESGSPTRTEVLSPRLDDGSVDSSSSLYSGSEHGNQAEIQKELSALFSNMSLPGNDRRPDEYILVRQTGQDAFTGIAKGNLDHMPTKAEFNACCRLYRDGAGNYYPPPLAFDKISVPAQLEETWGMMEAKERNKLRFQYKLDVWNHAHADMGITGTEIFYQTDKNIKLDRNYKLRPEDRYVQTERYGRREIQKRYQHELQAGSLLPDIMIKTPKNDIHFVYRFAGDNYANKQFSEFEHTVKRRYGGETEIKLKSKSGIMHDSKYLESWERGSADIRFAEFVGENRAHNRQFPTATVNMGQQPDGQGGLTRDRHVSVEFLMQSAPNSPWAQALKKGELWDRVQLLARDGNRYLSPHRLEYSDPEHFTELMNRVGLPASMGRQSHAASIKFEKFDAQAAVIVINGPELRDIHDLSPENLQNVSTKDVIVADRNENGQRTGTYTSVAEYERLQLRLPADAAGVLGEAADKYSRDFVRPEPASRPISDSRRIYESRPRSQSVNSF
Turning to “myc-tagged myosin XI-K cargo binding domain (transgenic Arabidopsis roots) (domain or fragment)”, the percent of the input co-immunoprecipitated (% of the input) is 4.

Take “myc-tagged myosin VIII-2 cargo binding domain (transgenic Arabidopsis roots) (domain or fragment)”: the percent of the input co-immunoprecipitated (% of the input) was found to be 4.

As to “myc-tagged myosin VIII-B cargo binding domain (transgenic Arabidopsis roots) (domain or fragment)”, the percent of the input co-immunoprecipitated (% of the input) was 4.

Substance “myc-tagged myosin VIII-A cargo binding domain (transgenic Arabidopsis roots) (domain or fragment)” came in with a percent of the input co-immunoprecipitated (% of the input) of 4.
